According to PMC4861216:
Where “and” joins values, the source holds several entries; their conditions need not be identical. Identical values can stand only once.

Biological target: protamine-oligonucleotide nanoparticles (proticles) (salmon)
Assay: co-sedimentation

With “apolipoprotein A-I (from UniProt P02647 19-267) (natural protein)” the percent of added apoA-I bound (5 ug apoA-I/10 ug ON) was 80% and the stoichiometry N (apoA-I molecules per nanoparticle) was 14000 and 15000.
